The target of data set [1] is recombinant human secretagogin (hSCGN) wild type (human) (UniProt O76038). The data set is described as follows: SEC; 450 µg protein on Superdex 200 HR 10/30 in PBS, 0.5 mL/min; samples pretreated with EGTA and DTT, then treated with Ca^2+ and H2O2. (In general: In gel filtration, larger molecules generally elute earlier.)
Data set [2] concerns the molecule itself. The data set is described as follows: non-reducing SDS-PAGE of disulfide-linked dimers; recombinant protein incubated with 0 or 2 mM CaCl2 at R.T. for 15 min, then H2O2 at 37°C for 1 h; Coomassie blue staining.

By stoichiometry N is commonly meant the number of molecules, sites or subunits per partner or assembly. As to “recombinant human secretagogin (hSCGN) wild type (from UniProt O76038 1-276) (natural protein)”, in data set [1], the stoichiometry N was found to be 2.

B1: purified hSCGN ΔEF1 (deletion of 1-52 a.a.) (domain or fragment, human, UniProt O76038 53-276, looked up)
chain: TVMKANLHKVKQQFMTTQDASKDGRIRMKELAGMFLSEDENFLLLFRRENPLDSSVEFMQIWRKYDADSSGFISAAELRNFLRDLFLHHKKAISEAKLEEYTGTMMKIFDRNKDGRLDLNDLARILALQENFLLQFKMDACSTEERKRDFEKIFAYYDVSKTGALEGPEVDGFVKDMMELVQPSISGVDLDKFREILLRHCDVNKDGKIQKSELALCLGLKINP
notes: human secretagogin (SCGN) without residues 1-52 (EF1); The methods describe ΔEF1 only as a pcDNA3.1 construct; also called ΔEF1 protein; recombinant ΔEF1; source: purified recombinant protein
As to B1, in data set [2], the binding result was “binds”.
